We go through two substances from publication doi:10.1101/2022.06.15.496229.

Experiment [1] has as its target DHR2 domain of human DOCK10 (DOCK10^DHR2, residues 1695-2151) (human) (UniProt Q96BY6). Put plainly: ITC. On the technique in general: Isothermal titration calorimetry measures the heat released or taken up as one component is titrated into another.
Experiment [2] shares this target. As to the kind of experiment: SEC-MALS. For orientation: Size exclusion chromatography separates by hydrodynamic size, large species first.

Chain of DHR2 domain of human DOCK10 (DOCK10^DHR2, residues 1695-2151) (human) (Q96BY6 1695-2151): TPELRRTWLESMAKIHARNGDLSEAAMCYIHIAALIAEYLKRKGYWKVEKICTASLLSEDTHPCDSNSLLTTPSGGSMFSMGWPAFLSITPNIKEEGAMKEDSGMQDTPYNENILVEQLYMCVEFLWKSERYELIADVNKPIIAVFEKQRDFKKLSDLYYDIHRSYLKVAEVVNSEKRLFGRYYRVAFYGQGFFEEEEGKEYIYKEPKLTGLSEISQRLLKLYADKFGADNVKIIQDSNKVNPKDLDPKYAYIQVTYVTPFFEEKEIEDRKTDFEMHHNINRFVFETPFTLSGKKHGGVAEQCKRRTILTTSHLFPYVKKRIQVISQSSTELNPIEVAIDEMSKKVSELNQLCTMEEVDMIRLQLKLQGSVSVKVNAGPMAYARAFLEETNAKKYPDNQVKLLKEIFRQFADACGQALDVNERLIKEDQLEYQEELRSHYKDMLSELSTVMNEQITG

As for “RAC3 (residues 1-192) (from UniProt P60763 1-192) (natural protein)”, in experiment [1], the dH is -2.05 kcal/mol.
Consider “RAC1 (residues 1-192) (from UniProt P63000 1-192) (natural protein)”, for which, in experiment [2], the stoichiometry N (DOCK10^DHR2 per RAC1) came out at 2.
